This note sets out measurements from patent US4478746A, “Glycosylated insulin derivatives” (priority 1984, dated 1984).

Series [1] can be described thus: Aggregation test on polyurethane (Biomer), microscopically observed. The series is classed as physicochemical. As to conditions: 0.1 mg/ml insulin solution deposited on polyurethane (Biomer). How it is done: (§1) Bulk aggregation studies with free insulin compared with glycosylated insulins were carried out by two methods. In a bulk aggregation study, various aqueous insulin and glycosylated insulin solutions containing 0.1 mg/ml of insulin were stirred at 1555 rpm until aggregation was visually observed or up to two weeks. In a second test, solutions containing the same insulin concentration were deposited on polyurethane (Biomer) and microscopically observed for aggregation.

A short description of series [2]: Bulk aggregation study (stirred aqueous solutions, aggregation visually observed). The series is classed as physicochemical. As to conditions: aqueous solution 0.1 mg/ml insulin, stirred at 1555 rpm until aggregation visually observed or up to two weeks. How it is done:
as §1

The next series deals with blood sugar level. Kind of series: Blood sugar depression (BSD) test. In kind it is in vivo. As to conditions: rats fasted twenty hours, 1 mg/kg intraperitoneal, 20 minutes after injection; control (baseline) 64.62 ± 0.61. The procedure:
The bioactivity of the glycosated insulins described herein was determined by a blood sugar depression test and compared to commercial insulin preparations and controls. In this test, replicates of standard laboratory rats were fasted for twenty hours. After measuring baseline blood sugar levels, a 1 mg/kg dose of either free or glycosylated insulin was injected via an intraperitoneal route. The blood sugar level in each rat was measured colormetrically 20 minutes after the injection.

On to “p-(α-D-glucopyranosyloxy)-phenyl-thiocarbamoyl Insulin”, for which, in series [1], the “Time required for aggregation, Polyurethane” value (from here on “Time required … Polyurethane”) came out at 8 days. The “Time required for aggregation, Bulk” value in series [2] was determined as 2 weeks. Further, the “Blood Sugar Concentration after 20 min. IP. injection (± S.E.M.)” value (shortened to “Blood Sugar Concentration”) in the series on blood sugar level is 44.67 ± 2.21 mg/dL.

For the substance “p-(α-D-mannopyranosyloxy)-phenyl-N-glutaramyl insulin”, the “Blood Sugar Concentration” value in the series on blood sugar level was found to be 40.60 ± 0.80 mg/dL.

Regarding “p-α-D-glucopyranosyloxy)-phenyl-N-glutaramyl insulin”, in the series on blood sugar level, the “Blood Sugar Concentration” value turned out to be 40.40 ± 2.53 mg/dL.

As for glucosamidoglutaryl insulin, the “Blood Sugar Concentration” value in the series with blood sugar level worked out at 45.92 ± 3.30 mg/dL.

With “SIGMA INS (21F-0375): commercial insulin preparation (Sigma) used as comparison”, in the series on blood sugar level, the “Blood Sugar Concentration” value stood at 32.66 ± 1.10 mg/dL.

For the substance “p-(α-D-glucopyranosyloxy)-phenyl-N-succinamyl insulin”, the “Time required … Polyurethane” value in series [1] was 2 weeks. Also, the “Time required for aggregation, Bulk” value in series [2] is reported as 2 weeks. In the series on blood sugar level, the “Blood Sugar Concentration” value turned out to be 40.87 ± 1.32 mg/dL.

Turning to “p-(α-D-mannopyranosyloxy)-phenyl-N-succinamyl insulin”, the “Time required … Polyurethane” value in series [1] stood at 2 weeks. The “Time required for aggregation, Bulk” value in series [2] is on record as 2 weeks. In the series with blood sugar level, the “Blood Sugar Concentration” value came to 44.80 ± 2.37 mg/dL.

As for “insulin [Free Insulin, reference compound]”, the “Time required … Polyurethane” value in series [1] lay within 1 to 2 days. Also, the “Time required for aggregation, Bulk” value in series [2] is 2 to 3 days.

Take Glucosamidosuccinyl insulin: the “Blood Sugar Concentration” value in the series with blood sugar level was found to be 37.80 ± 1.13 mg/dL.
